For this experiment, the target named is KAT2-CFP (Arabidopsis thaliana, UniProt Q38849 1-697). The experiment can be described thus: cell-based or functional assay.

From article PMC7914964, “Ca^2+-Dependent Protein Kinase 6 Enhances KAT2 Shaker Channel Activity in Arabidopsis thaliana” (International Journal of Molecular Sciences, 2021) come the findings set out here.

KAT2-CFP, sequence (Q38849 whole entry): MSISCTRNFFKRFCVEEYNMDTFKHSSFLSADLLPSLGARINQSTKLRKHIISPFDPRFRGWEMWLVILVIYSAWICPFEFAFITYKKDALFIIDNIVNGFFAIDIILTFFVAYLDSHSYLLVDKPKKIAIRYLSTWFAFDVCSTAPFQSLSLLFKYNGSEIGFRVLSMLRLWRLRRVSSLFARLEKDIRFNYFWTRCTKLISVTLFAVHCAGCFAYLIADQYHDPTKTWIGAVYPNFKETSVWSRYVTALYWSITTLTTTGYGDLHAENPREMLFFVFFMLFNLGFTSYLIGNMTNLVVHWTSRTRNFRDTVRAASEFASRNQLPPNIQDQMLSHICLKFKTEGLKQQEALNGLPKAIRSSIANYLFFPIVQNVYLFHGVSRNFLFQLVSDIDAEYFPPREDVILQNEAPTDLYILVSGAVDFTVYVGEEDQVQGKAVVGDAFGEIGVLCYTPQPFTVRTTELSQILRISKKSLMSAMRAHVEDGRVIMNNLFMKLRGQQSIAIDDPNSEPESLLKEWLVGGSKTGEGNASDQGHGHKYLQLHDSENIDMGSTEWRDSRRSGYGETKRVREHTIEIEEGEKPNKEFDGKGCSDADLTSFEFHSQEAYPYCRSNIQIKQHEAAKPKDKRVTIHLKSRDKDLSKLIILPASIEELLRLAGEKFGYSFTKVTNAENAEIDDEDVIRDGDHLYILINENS

B1: AtCPK6-YFP (enzyme, Arabidopsis thaliana, UniProt Q38872 1-544, looked up)
chain: MGNSCRGSFKDKIYEGNHSRPEENSKSTTTTVSSVHSPTTDQDFSKQNTNPALVIPVKEPIMRRNVDNQSYYVLGHKTPNIRDLYTLSRKLGQGQFGTTYLCTDIATGVDYACKSISKRKLISKEDVEDVRREIQIMHHLAGHKNIVTIKGAYEDPLYVHIVMELCAGGELFDRIIHRGHYSERKAAELTKIIVGVVEACHSLGVMHRDLKPENFLLVNKDDDFSLKAIDFGLSVFFKPGQIFKDVVGSPYYVAPEVLLKHYGPEADVWTAGVILYILLSGVPPFWAETQQGIFDAVLKGYIDFDTDPWPVISDSAKDLIRKMLCSSPSERLTAHEVLRHPWICENGVAPDRALDPAVLSRLKQFSAMNKLKKMALKVIAESLSEEEIAGLRAMFEAMDTDNSGAITFDELKAGLRRYGSTLKDTEIRDLMEAADVDNSGTIDYSEFIAATIHLNKLEREEHLVSAFQYFDKDGSGYITIDELQQSCIEHGMTDVFLEDIIKEVDQDNDGRIDYEEFVAMMQKGNAGVGRRTMKNSLNISMRDV
For the molecule B1, the “KAT2 currents at hyperpolarized potentials (TEVC) in Xenopus laevis oocytes co-expressing KAT2 and AtCPK6, against KAT2 alone” value worked out at 2 fold.
